The source of these data is patent US9359634B2, “Fast reaction kinetics of enzymes having low activity in dry chemistry layers” (Roche Diabetes Care, Inc., priority 2009, dated 2016).

Common to all, as to assay type: biochemical
The test system of data set [1] is glucose dehydrogenase from Bacillus subtilis. Kind of data set: Enzyme activity before and after temperature stress (stress test) of clones. As to conditions: stress test: 30 min at 50° C.; tested in Escherichia coli XL1blue MRF′. On the procedure: The PCR product obtained was transformed into Escherichia coli XL1blue MRF′. The cells were plated out, clones containing plasmid were cultured overnight and the enzyme activity was determined before and after temperature stress (stress test: 30 min at 50° C.).

Data set [2] deals with T1, glucose dehydrogenase from Bacillus subtilis (Bacillus subtilis, UniProt P12310, A229V/A236S/Q252K). As to conditions: enzyme used in the test strips; coenzyme NAD.
For data set [3], the system named is glucose dehydrogenase from Bacillus subtilis. The following applies: for activity, U/mg enzyme / activity, U/mg lyophilisate: cuvette, 25° C., 340 nm; for % U/mg lyophilisate relative to NAD: coenzyme carbaNAD relative to NAD; for activity with carbaNAD compared with activity with NAD: standardized conditions in a cuvette.
Data set [4] has as its target T1, glucose dehydrogenase from Bacillus subtilis. As to conditions: test strips, coenzyme NAD, blood with adjusted glucose values; 1556.2 to 25.10 kU/100 g mass.
Data set [5] addresses T2, glucose dehydrogenase from Bacillus subtilis (Bacillus subtilis, UniProt P12310, A229V/A236S/E170K/Q252L). The following applies: enzyme used in the test strips; coenzyme carbaNAD.
Data set [6] has as its target T2, glucose dehydrogenase from Bacillus subtilis. As to conditions: test strips, coenzyme carbaNAD, 4.60 kU/100 g mass; versus all wild type/NAD formulations of table 3.

Positions count from the first letter of the chain named. Read-outs that look alike come from different tables or passages of the source.

T2 sequence (P12310 whole entry E170K/A229V/A236S/Q252L): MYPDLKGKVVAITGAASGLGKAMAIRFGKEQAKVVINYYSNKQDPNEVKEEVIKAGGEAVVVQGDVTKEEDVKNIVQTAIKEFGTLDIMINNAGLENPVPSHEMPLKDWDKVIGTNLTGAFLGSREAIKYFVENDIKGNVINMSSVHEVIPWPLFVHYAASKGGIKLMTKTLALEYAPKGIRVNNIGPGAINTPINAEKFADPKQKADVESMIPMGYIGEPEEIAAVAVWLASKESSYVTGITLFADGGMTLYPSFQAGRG

B1: WT-GlucDH: wild type (native) glucose dehydrogenase from Bacillus subtilis (protein, listed as Bacillus subtilis)
chain: MYPDLKGKVVAITGAASGLGKAMAIRFGKEQAKVVINYYSNKQDPNEVKEEVIKAGGEAVVVQGDVTKEEDVKNIVQTAIKEFGTLDIMINNAGLENPVPSHEMPLKDWDKVIGTNLTGAFLGSREAIKYFVENDIKGNVINMSSVHEVIPWPLFVHYAASKGGIKLMTETLALEYAPKGIRVNNIGPGAINTPINAEKFADPKQKADVESMIPMGYIGEPEEIAAVAVWLASKESSYVTGITLFADGGMTKYPSFQAGRG
Broadly, the Km is the substrate concentration at which the rate is half of its maximum. As to B1, in data set [1], the “residual activity after stress (%)” value stood at 23%. Moreover, the “lyophilisate activity (U/mg)” value in data set [2] was determined as 251 U/mg. Besides, in data set [3], the “Vmax (U/mg lyophilsate)” value was 122, the “% U/mg lyophilisate relative to NAD” value worked out at 1.7% and the “activity with carbaNAD compared with activity with NAD” value was “two orders of magnitude lower”. In addition, in data set [3] (coenzyme NAD), the Km is 80 µM; the “activity, U/mg enzyme” value was 484 U/mg enzyme; the “activity, U/mg lyophilisate” value turned out to be 203 U/mg lyophilisate. Also, in data set [3] (coenzyme carbaNAD), the Km turned out to be 300 µM; the “Vmax (U/mg lyophilisate)” value stood at 3 U/mg lyophilisate; the “activity, U/mg enzyme” value came to 8.2 U/mg enzyme; the “activity, U/mg lyophilisate” value came out at 3.4 U/mg lyophilisate. Also, the “kinetics of the conversion of glucose” value in data set [4] is reported as “worsened with a decreasing enzyme content”.

B2: GlucDH_E170K_K252L (protein)
chain: B1 chain with E170K, K252L
modifications: Mutant of glucose dehydrogenase from Bacillus subtilis
Regarding B2, the “residual activity after stress (%)” value in data set [1] is 130%. For the same molecule, in data set [5], the “lyophilisate activity (U/mg)” value stood at 2.3 U/mg. Moreover, in data set [3], the “Vmax (U/mg lyophilsate)” value turned out to be 144, the “% U/mg lyophilisate relative to NAD” value came to 1.4% and the “activity with carbaNAD compared with activity with NAD” value is given as “about two orders of magnitude lower”. In data set [3] (coenzyme NAD), the Km was found to be 70 µM; the “activity, U/mg enzyme” value amounted to 270 U/mg enzyme; the “activity, U/mg lyophilisate” value stood at 167 U/mg lyophilisate. Besides, in data set [3] (coenzyme carbaNAD), the Km worked out at 1400 µM; the “Vmax (U/mg lyophilisate)” value amounted to 13 U/mg lyophilisate; the “activity, U/mg enzyme” value is given as 3.7 U/mg enzyme; the “activity, U/mg lyophilisate” value was determined as 2.3 U/mg lyophilisate. In addition, the “kinetics of the conversion of glucose” value in data set [6] was “better kinetics”.

B3: GlucDH_E170K (protein, UniProt P12310 1-261, looked up, variant E170K)
Glucose 1-dehydrogenase: B1 chain with E170K, V229A, S236A, K252Q
In the case of B3, the “residual activity after stress (%)” value in data set [1] came out at 80%.
